Laboratory results from patent US20210347873A1 (SHANGHAI PHARMAEXPLORER, published 2021).

Key:
[1] = molecular target: extracellular domain of human BLyS protein (hBLyS-ECD), His-tagged, Ala134-Leu285 (human) (UniProt Q9Y275); assay: cell-based or functional assay
[2] = molecular target: biotinylated hBLyS-ECD (human) (UniProt Q9Y275); assay: ELISA on captured biotinylated hBLyS-ECD; control antibody 2.67 nM
[3] = molecular target: biotinylated hBLyS-ECD (human) (UniProt Q9Y275); assay: ELISA on captured biotinylated hBLyS-ECD; control antibody 0.0213 nM
[4] = molecular target: biotinylated hBLyS-ECD (human) (UniProt Q9Y275); assay: ELISA on captured biotinylated hBLyS-ECD; control antibody 0.107 nM
[5] = molecular target: biotinylated hBLyS-ECD (human) (UniProt Q9Y275); assay: ELISA on captured biotinylated hBLyS-ECD; control antibody 0.00427 nM
[6] = molecular target: biotinylated hBLyS-ECD (human) (UniProt Q9Y275); assay: ELISA on captured biotinylated hBLyS-ECD; control antibody 13.3 nM
[7] = molecular target: biotinylated hBLyS-ECD (human) (UniProt Q9Y275); assay: ELISA on captured biotinylated hBLyS-ECD; control antibody 66.7 nM
[8] = molecular target: biotinylated hBLyS-ECD (human) (UniProt Q9Y275); assay: BAFF R-coated ELISA, biotinylated hBLyS-ECD bound in presence of control antibody 0 nM
[9] = molecular target: extracellular domain of human BLyS protein (hBLyS-ECD), His-tagged, Ala134-Leu285 (human, UniProt Q9Y275 134-285); assay: cell-based or functional assay
Chain of extracellular domain of human BLyS protein (hBLyS-ECD), His-tagged, Ala134-Leu285 (Q9Y275 134-285): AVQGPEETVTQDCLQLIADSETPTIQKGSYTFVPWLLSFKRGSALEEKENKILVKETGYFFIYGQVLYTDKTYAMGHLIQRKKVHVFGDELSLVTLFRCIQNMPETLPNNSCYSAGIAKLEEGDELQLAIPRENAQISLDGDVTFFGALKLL

Chain of biotinylated hBLyS-ECD (human) (Q9Y275 134-285): as above
Chain of extracellular domain of human BLyS protein (hBLyS-ECD), His-tagged, Ala134-Leu285 (human) (Q9Y275 134-285): as above

## hIgG Control (antibody)
[1]
  Proportion of B lymphocytes in splenocytes (%), in vivo in mice: 38.3%
[2]
  OD450 nm: 0.237 OD450 nm
[3]
  OD450 nm: 0.0699 OD450 nm
[4]
  OD450 nm: 0.117 OD450 nm
[5]
  OD450 nm: 0.0798 OD450 nm
[6]
  OD450 nm: 0.072 OD450 nm
[7]
  OD450 nm: 0.14 OD450 nm
[8]
  OD450 nm: 2 OD450 nm

B1: c97A3C2H4 (antibody, V domains shown)
VH: EVKLVESGGGLVQPGGSLKLSCAASGFTFSTYTMSWVRQTPEKRLEWVAYISYGGGSTSYPDTVKGRFTISRDNAKNTLYLQMSSLKSEDTAIYYCTRHVTVVENSMDYWGQGTSVTVSS
VL: DILLTQSPDILSVSPGERVSFSCRASQSIGTSIHWYQQRTNGSPRLLIKYVSESFSGTPSRFSGSGSGTAFTLTINSVESEDIADYYCQQTHSWPWTFGGGTKLEIK
notes: also called chimeric antibody c97A3C2H4
[9]
  Proportion of B lymphocytes in splenocytes (%), in vivo in mice: 24.1%
